The target of data set [1] is T1, Ac-PLG˜Hphe-OL-Ambh-Hynic.
T1 chain: PLGXXL

A further data set addresses T2, Ac-POG˜Hphe-L-Ambh-Hynic.
T2 chain: PXGXL

In data set [2] the target is T3, Ac-PLG˜Hphe-YL-Ahxh-Hynic (not fully specified).
T3 chain: PLGXYL

For the next data set, the target named is T4, Ac-PLG˜Hphe-YL-Hynic.
T4 chain: PLGXYL

For a further data set, the target named is T5, Ac-POG˜Hphe-L-Hynic.
T5 chain: PXGXL

For data set [3], the target named is T6, Ac-NGlu-PLG˜Hphe-YL-Ambh-Hynic (not fully specified).
T6 chain: XPLGXYL

In data set [4] the target is T7, Ac-Csa-PLG˜Hphe-YL-Ambh-Hynic (not fully specified).
T7 chain: XPLGXYL

For the next data set, the target named is T8, Ac-NGlu-POG˜Hphe-L-Hynic (not fully specified).
T8 chain: XPXGXL

This note sets out measurements from patent US20050106100.

B1: mouse MMP9 (protein)
chain: FQTFKGLKWDHHNITYWIQNYSEDLPRDMIDDAFARAFAVWGEVAPLTFTRVYGPEADIVIQFGVAEHGDGYPFDGKDGLLAHAFPPGAGVQGDAHFDDDELWSLGKGVVIPTYYGNSNGAPCHFPFTFEGRSYSACTTDGRNDGTPWCSTTADYDKDGKFGFCPSERLYTEHGNGEGKPCVFPFIFEGRSYSACTTKGRSDGYRWCATTANYDQDKLYGFCPTRVDATVVGGNSAGELCVFPFVFLGKQYSSCTSDGRRDGRLWCATTSNFDTDKKWGFCPDQGYSLFLVAAHEFGHALGLDHSSVPEALMYPLYSYLEGFPLNKDDIDGIQYLYGRGSKPDPRPPATTTTEPQPTAPPTMCPTIPPTAYPTVGPTVGPTGAPSPGPTSSPSPGPTGAPSPGPTAPPTAGSSEASTESLSPADNPCNVDVFDAIAEIQGALHFFKDGWYWKFLNHRGSPLQGPFLTARTWPALPATLDSAFEDPQTKRVFFFSGRQMWVYTGKTVLGPRSLDKLGLGPEVTHVSGLLPRRLGKALLFSKGRVWRFDLKSQKVDPQSVIRVDKEFSGVPWNSHDIFQYQDKAYFCHGKFFWRVSFQNEVNKVDHEVNQVDDVGYVTYDLLQCP
Turning to B1, the Kcat/Km was 48000 M⁻¹ s⁻¹ in data set [1]; 14400 M⁻¹ s⁻¹ with Ac-POG˜Hphe-L-Ambh-Hynic; over 100000 M⁻¹ s⁻¹ in data set [2]; over 100000 M⁻¹ s⁻¹ with Ac-PLG˜Hphe-YL-Hynic; 897 M⁻¹ s⁻¹ with Ac-POG˜Hphe-L-Hynic; over 100000 M⁻¹ s⁻¹ in data set [3]. Besides, the Kcat/Km is 31000 M⁻¹ s⁻¹ in data set [4] and 571 M⁻¹ s⁻¹ with Ac-NGlu-POG˜Hphe-L-Hynic.
